The text below walks through data of paper PMC9020658, “Mechanism of RNA polymerase I selection by transcription factor UAF”.

Data set [1] has as its target T1, UAF (Rrn5-Rrn9-Rrn10-Uaf30-H3-H4) (Saccharomyces cerevisiae? (budding …, UniProt Q02983;P53437;P38204;Q08747;P61830;P02309 1-363;1-365;1-145;1-228;1-136;1-103)). The experiment in a line: filter binding; fitted Kd only in figure; legend order of the DNAs appears swapped; 30 mM Hepes-NaOH pH 7.5, 30 mM sodium citrate pH 6.0, 250 mM KCl, 2 mM DTT; filter binding 1 h at 4 C; footprinting on ice, then 2.5 mM MgCl2, 0.5 mM CaCl2, DNa.

Data set [2] has as its target T1, UAF (Rrn5-Rrn9-Rrn10-Uaf30-H3-H4). The experiment in a line: filter binding; two repeats; text assigns tight Kd to -110/-40, fig. S7 legend order of the DNAs appears swapped; 30 mM Hepes-NaOH pH 7.5, 30 mM sodium citrate pH 6.0, 250 mM KCl, 2 mM DTT; filter binding 1 h at 4 C; footprinting on ice, then 2.5 mM MgCl2, 0.5 mM CaCl2, DNa.

B1: DNA-180/-110 (upstream) (dsDNA)
DNA 1: ATATACGCTAAGATTTTTGGAGAATAGCTTAAATTGAAGTTTTTCTCGGCGAGAAATACGTAGTTAAGGCA
DNA 2: TGCCTTAACTACGTATTTCTCGCCGAGAAAAACTTCAATTTAAGCTATTCTCCAAAAATCTTAGCGTATAT
Take B1: the “fold decrease in affinity” value in data set [1] was ~5 fold lower affinity than DNA-110/-40.

B2: DNA-110/-40 (downstream) (dsDNA)
DNA 1: AGAGCGACAGAGAGGGCAAAAGAAAATAAAAGTAAGATTTTAGTTTGTAATGGGAGGGGGGGTTTAGTCAT
DNA 2: ATGACTAAACCCCCCCTCCCATTACAAACTAAAATCTTACTTTTATTTTCTTTTGCCCTCTCTGTCGCTCT
Molecule B2 showed a Kd in data set [2] of 20.4 nM.

As a reminder, the Kd is the free concentration of one partner at which half of the binding sites on the other are occupied at equilibrium, for simple one-to-one binding.
